In US20130225493A1 (HEPACORE, published 2013):

T1: FGFR4 extracellular domain, immobilized (R4-Fc) (UniProt P22455 22-369)
T1 construct: extracellular domain; also called FDCPR4-Fc
T1 sequence (looked up): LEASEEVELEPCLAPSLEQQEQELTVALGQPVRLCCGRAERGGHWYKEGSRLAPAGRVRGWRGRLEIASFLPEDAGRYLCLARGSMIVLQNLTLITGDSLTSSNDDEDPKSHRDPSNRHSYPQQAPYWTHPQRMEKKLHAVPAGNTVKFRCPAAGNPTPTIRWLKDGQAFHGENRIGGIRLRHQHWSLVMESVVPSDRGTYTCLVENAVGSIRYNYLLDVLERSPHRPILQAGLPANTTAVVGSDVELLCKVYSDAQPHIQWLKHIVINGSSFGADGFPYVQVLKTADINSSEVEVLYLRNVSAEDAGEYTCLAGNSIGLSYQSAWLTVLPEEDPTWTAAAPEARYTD


Assays:
[1] = target: T1, FGFR4 extracellular domain, immobilized …; experiment: ELISA: biotinylated ligand on immobilized FGFR-Fc, HRP-streptavidin
Protocol: FIGS. 2A-2D. […] (2A) FGFR1; (2B) FGFR2; (2C) FGFR3 and (2D) FGFR4. Biotinylated FGF-18 (♦) and three FGF-18 variants (Δ37, v1,; Δ45, v2, (▪); and Δ51, v3, (▪)) were added at increasing concentrations to FGFR1-4 anchored to a MaxiSorp ELISA plate. Bound ligands were detected by HRP-streptavidin. Data are the average of duplicate wells.
FGF-18 and the N-terminal truncated variants (FGF-18^Δ37, FGF-18^Δ45 and FGF-18^Δ51) were tested for receptor specificity by binding to immobilized extracellular domain of FGFR1-4 (FIG. 2). Biotinylated FGF's were added at increasing concentrations to FGFR1-4 anchored to a MaxiSorp ELISA plate. Bound ligands were detected by HRP-streptavidin. […] The variants of the present invention are thus shown to be specific for FGFR3-4.

[2] = target: T1, FGFR4 extracellular domain, immobilized …; experiment: functional ELISA on immobilized FGFR

Binder | EC50 [1] [ng/mL] | EC50 [2] [ng/mL]
FGF-18^Δ33 (ligand, biotinylation not stated for the functional ELISA of Table 4, E. coli expressed; Numbering includes the signal peptide (1-27)) MRIHVENQTRARDDVSRKQLRLYQLYSRTSGKHIQVLGRRISARGEDGDKYAQLLVETDTFGSQVRIKGKETEFYLCMNRKGKLVGKPDGTSKECVFIEKVLENNYTALMSAKYSGWYVGFTKKGRPRKGPKTRENQQDVHFMKRYPKGQPELQKPFKYTTVTKRSRRIRPTHPA | – | 7.11
FGF-18 (recombinant wild type, mature form without the signal peptide) (ligand, biotinylated in the immobilized receptor assays (sites not given), Expressed in E. coli from pET9a and purified on heparin Sepharose; also called FGF-18 wild type; F18 w.t) MENVDFRIHVENQTRARDDVSRKQLRLYQLYSRTSGKHIQVLGRRISARGEDGDKYAQLLVETDTFGSQVRIKGKETEFYLCMNRKGKLVGKPDGTSKECVFIEKVLENNYTALMSAKYSGWYVGFTKKGRPRKGPKTRENQQDVHFMKRYPKGQPELQKPFKYTTVTKRSRRIRPTHPA | 9.23 | 10.2
FGF-18^Δ31 (ligand, biotinylation not stated for the functional ELISA of Table 4, E. coli expressed) MDFRIHVENQTRARDDVSRKQLRLYQLYSRTSGKHIQVLGRRISARGEDGDKYAQLLVETDTFGSQVRIKGKETEFYLCMNRKGKLVGKPDGTSKECVFIEKVLENNYTALMSAKYSGWYVGFTKKGRPRKGPKTRENQQDVHFMKRYPKGQPELQKPFKYTTVTKRSRRIRPTHPA | – | 9.36

Further lines, results first:

EC50 [1] [ng/mL] | EC50 [2] [ng/mL] | Binder
5.86 | 8.28 | FGF-18^Δ37 (ligand, biotinylated in the immobilized receptor assays (sites not given), E. coli expressed; Numbering includes the signal peptide (1-27); also called v1) MENQTRARDDVSRKQLRLYQLYSRTSGKHIQVLGRRISARGEDGDKYAQLLVETDTFGSQVRIKGKETEFYLCMNRKGKLVGKPDGTSKECVFIEKVLENNYTALMSAKYSGWYVGFTKKGRPRKGPKTRENQQDVHFMKRYPKGQPELQKPFKYTTVTKRSRRIRPTHPA
9.93 | 10.6 | FGF-18^Δ51 (ligand, biotinylated in the immobilized receptor assays (sites not given), E. coli expressed; Numbering includes the signal peptide (1-27); also called v3) MLRLYQLYSRTSGKHIQVLGRRISARGEDGDKYAQLLVETDTFGSQVRIKGKETEFYLCMNRKGKLVGKPDGTSKECVFIEKVLENNYTALMSAKYSGWYVGFTKKGRPRKGPKTRENQQDVHFMKRYPKGQPELQKPFKYTTVTKRSRRIRPTHPA
8.1 | – | FGF-18^Δ45 (ligand, biotinylated in the immobilized receptor assays (sites not given), E. coli expressed; Numbering includes the signal peptide (1-27); also called v2) MDVSRKQLRLYQLYSRTSGKHIQVLGRRISARGEDGDKYAQLLVETDTFGSQVRIKGKETEFYLCMNRKGKLVGKPDGTSKECVFIEKVLENNYTALMSAKYSGWYVGFTKKGRPRKGPKTRENQQDVHFMKRYPKGQPELQKPFKYTTVTKRSRRIRPTHPA
